# From US20260125468A1 (NONA BIOSCIENCES SUZHOU, published 2026)
# T1: human CD3e&d-llamaFc
# T1 construct: also called hCD3e&d-llamaFc; Human CD3 epsilon & CD3 delta Heterodimer Protein fused with Llama Fc (Acro Biosystems, CDD-H5258); not shown: The llama Fc, any linker to it, and which chain or chains carry it
# T1 epsilon: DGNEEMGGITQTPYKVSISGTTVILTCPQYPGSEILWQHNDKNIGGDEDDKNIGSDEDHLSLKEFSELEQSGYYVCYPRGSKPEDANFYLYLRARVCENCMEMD
# T1 delta: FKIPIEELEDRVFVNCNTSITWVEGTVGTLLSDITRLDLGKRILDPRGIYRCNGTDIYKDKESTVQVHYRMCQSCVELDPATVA
# B1: PR006364, anti-CD3 A1-HCAb hIgG1(C220S, AAG) (antibody, V domains shown)
# VH: RIRLVESGGGLVQAGGSLRLSCAASGRTSGIPAMAWFRQAPGKEREFVAMAWSGGGTIYGDSVKNRFTISRDNTQNTIFLQMNSLKPEDTALYYCAAGRSTSNRADQYNYWGQGTQVTVSS
# notes: Heavy-chain-only antibody, VHH fused to conventional human IgG1 Fc (C220S, L234A, L235A, P329G)
# B2: PR010991, anti-CD3 3G11-HCAb hIgG1(C220S, AAA) (antibody, V domains shown)
# VH: RVHLAESGGGLVQAGGSLRLSCAASGSRLNDNAMAWFRQAPGKEREFVGSIFWTGGNTYYADAVKGRLTISRDNAKNALYLQMNSLKPEDTAVYYCAASRVVWYYCSGYGCSRAGDYVYWGQGTQVTVSS
# notes: Heavy-chain-only antibody, human IgG1 Fc (C220S, L234A, L235A, G237A)
# B3: PR006365, anti-CD3 E2-HCAb hIgG1(C220S, AAG) (antibody, V domains shown)
# VH: EVQLVESGGGLVQAGGSLRLSCAASGRTNGIPAMAWFRQAPGKEREFVAMAWSGGGTIYGDSVKNRFTISRNNAQNTISLQMSSLRPEDTALYFCAAGRTTSNKADHYNYWGQGTQVTVSS
# notes: Heavy-chain-only antibody, human IgG1 Fc (C220S, L234A, L235A, P329G)
# B4: PR006361, anti-CD3/TCR HCAb hIgG1(AAG) from WO2016180982A1 (antibody, V domains shown)
# VH: EVQLVESGGGPVQAGGSLRLSCAASGRTYRGYSMGWFRQAPGKEREFVAAIVWSGGNTYYEDSVKGRFTISRDNAKNTMYLQMTSLKPEDSATYYCAAKIRPYIFKIAGQYDYWGQGTQVTVSS
# notes: Control heavy-chain-only antibody from prior art; C220S and AAG mutations
# B5: PR006001, anti-B7H4xCD3 VH(PR006361)-Fc-scFv(PR003366), hIgG1(dCH1, KiH, LALA) (bispecific antibody)
# chain 1: not shown
# chain 2: EIVMTQSPASLSVSPGERATLSCRASQSVSSNLAWYQQKPGQAPRLLIYGASTRATGIPARVSGGGSGTEFTLTISSLQSEDFAVYYCQQYKNWPFTFGPGTKLEIKGGGGSGGGGSGGGGSGGGGSQVQLVQSGAEVKKPGSSMRVSCKASEDTFSSYAISWVRQAPGQGLEWMGGTAPIFGTTNYAQKFQGRVTITADKSTSTAYMELSSLRSEDTAVYYCARGGPYFDYWGQGTLVTVSSASEPKSSDKTHTCPPCPAPEAAGGPSVFLFPPKPKDTLMISRTPEVTCVVVDVSHEDPEVKFNWYVDGVEVHNAKTKPREEQYNSTYRVVSVLTVLHQDWLNGKEYKCKVSNKALPAPIEKTISKAKGQPREPQVCTLPPSREEMTKNQVSLSCAVKGFYPSDIAVEWESNGQPENNYKTTPPVLDSDGSFFLVSKLTVDKSRWQQGNVFSCSVMHEALHNHYTQKSLSLSPGK
# notes: Control bispecific; anti-CD3 VH-Fc chain and anti-B7H4 scFv-Fc chain
# Tests used:
# human CD3e&d-llamaFc = target: T1, human CD3e&d-llamaFc; experiment: ELISA, plate coated with human CD3e&d-llamaFc at 1 µg/mL, anti-human IgG Fc-HRP [A]
# Protocol: (§1) ELISA assays were conducted as briefly described: CD3 proteins were coated onto ELISA plates at 1 μg/mL; testing antibodies OKT3 and PR006364 (A1-HCAb) were diluted from 2 μg/mL to 8 different concentrations by 3-fold serial dilution, or testing antibodies PR006370 (SP34) and PR010991 (3G11-HCAb) were diluted from 100 nM to 11 different concentrations by 2-fold serial dilution; secondary antibody (anti-human IgG Fc-HRP) was used to detect PR006364, PR006370 and PR010991, and secondary antibody (anti-mouse IgG Fc-HRP) was used to detect OKT3 binding signal. The absorption signal at 450 nm (OD450) was recorded by plate reader (Molecular Devices, SpectraMax), and the data were processed and non-linear curve fitting analyzed by GraphPad Prism 8.
# [1] = target: T2, Biotinylated human CD3e&d protein (Acro Biosystems, CDD-H82W6) (human, UniProt P07766 23-126; P04234 22-105, biotinylated protein; chain and site not stated); experiment: BLI (Octet RED96e), biotinylated antigen on SA biosensors, antibody 0.375-12 nM
# T2 construct: Bought protein loaded on SA Octet biosensors; also called human CD3 protein
# Protocol: (§2) To determine the binding affinities of anti-CD3 antibodies to human or cynomolgus monkey CD3e&d heterodimer proteins, bio-layer interferometry (BLI) assays were carried out by using Octet® RED96e.
# (§3) Biotinylated human CD3e&d protein (Acro Biosystems, CDD-H82W6) or biotinylated cynomolgus CD3e&d protein (Acro Biosystems, CDD-C82W6) was first loaded onto the surface of SA Octet biosensors (Sartorius, 18-5019) to reach capture levels between 0.5-0.8 nm. The loaded biosensors were then dipped in wells containing 2-fold serial dilutions of testing antibodies to detect association signals, followed by dissociation steps in wells containing kinetic buffer. The association phase was 180 seconds, and the dissociation phase was 900 seconds. The sensorgrams were recorded, and the reference signals were subtracted before curve fitting using ForteBio Data Analysis 11.0 software. Association rates (kon) and dissociation rates (koff) were calculated using a simple one-to-one Langmuir binding model. The equilibrium dissociation constant (KD) was calculated as the ratio of koff/kon.
# [2] = target: human CD3E&D heterodimer protein (construct not specified; FIG. 9A and FIG. 12) (human, UniProt P07766 23-126; P04234 22-105); experiment: ELISA on coated human CD3e&d heterodimer protein (construct not named on the sheet)
# [3] = target: T3, CD3/TCR complex on Jurkat cells (ATCC, TIB-152) and Jurkat-NFAT-Luc reporter cells (human, UniProt P07766 23-207; P04234 22-171; P09693 23-182; P20963 22-164); experiment: FACS on Jurkat cells, purified antibody [A]
# T3 construct: whole, on cells; also called CD3/TCR-positive Jurkat cells; TCR/CD3 complex
# Protocol: The binding activities to target cells for the supernatants A1-monoFc (PR005860) and E2-monoFc (PR005861) were evaluated by FACS. The supernatants of the recombinant antibodies (i.e. A1-monoFc, E2-monoFc) were diluted from bulk solution to 8 different concentrations by 3-fold serial dilution. […] The cells were washed twice with staining buffer and subjected to flow cytometry. The data were processed by FlowJo v10 (FlowJo, LLC) and non-linear curve fitting analyzed by GraphPad Prism 8.
# The binding activities to Jurkat and J.RT3-T3.5 cells for purified A1-HCAb (PR006364), E2-HCAb (PR006365) were determined by FACS, following the method described in Example 2. As shown in (A) and (B of FIG. 8, PR006364 and PR006365 can bind to Jurkat cells but not to J.RT3-T3.5 cells, which is consistent with the result in FIG. 1.
# [4] = target: T2, Biotinylated human CD3e&d protein (Acro …); experiment: BLI (Octet RED96e), biotinylated antigen on SA biosensors, antibody 1.5-24 nM
# Protocol: as §2, §3
# [5] = target: T4, Biotinylated cynomolgus CD3e&d protein (Acro Biosystems, CDD-C82W6) (cynomolgus, UniProt Q95LI5 22-117; Q95LI8 22-105, biotinylated protein; chain and site not stated); experiment: as above
# T4 construct: Bought protein loaded on SA Octet biosensors
# Protocol: as §2, §3
# [6] = target: T5, cynoCD3e&d-his, Cynomolgus CD3 epsilon & CD3 delta Heterodimer Protein (Acro Biosystems, CDD-C52W4) (Cynomolgus, UniProt Q95LI5 22-117; Q95LI8 22-105); experiment: ELISA, plate coated with cyno CD3e&d-his at 1 µg/mL, anti-human IgG Fc-HRP [C]
# T5 construct: Bought protein; also called cynomolgus CD3E&D heterodimer protein; not shown: His Tag fused to C-terminus of CD3 epsilon chain; Flag Tag fused to C-terminus of CD3 delta chain
# Protocol: as §1
# [7] = target: T6, hCD3e&g-his, Human CD3 epsilon & CD3 gamma Heterodimer Protein with His Tag (Acro Biosystems, CDG-H52W5) (Human, UniProt P07766 23-126; P09693 23-116); experiment: ELISA, plate coated with human CD3e&g-his at 1 µg/mL, anti-human IgG Fc-HRP [D]
# T6 construct: Bought protein; also called human CD3E&G heterodimer protein; not shown: His Tag fused to C-terminus of CD3 epsilon chain
# Protocol: as §1
# [8] = target: T7, hCD3e-his, Human CD3 epsilon Protein with His Tag (Acro Biosystems, CDE-H5223) (Human, UniProt P07766 23-126); experiment: ELISA, plate coated with human CD3e-his at 1 µg/mL, anti-human IgG Fc-HRP [E]
# T7 construct: Bought protein; also called human CD3E monomeric protein; monomeric CD3E; not shown: His Tag
# Protocol: as §1
# [9] = target: T8, hCD3d-his, Human CD3 delta Protein with His Tag (Acro Biosystems, CDD-H5224) (Human, UniProt P04234 22-105); experiment: ELISA, plate coated with human CD3d-his at 1 µg/mL, anti-human IgG Fc-HRP [F]
# T8 construct: Bought protein; also called monomeric CD3D; not shown: His Tag
# Protocol: as §1
# [10] = target: T9, hCD3e&d-his, Human CD3 epsilon & CD3 delta Heterodimer Protein with His Tag (Acro Biosystems, CDD-H52W1) (Human, UniProt P07766 23-126; P04234 22-105); experiment: ELISA, plate coated with human CD3e&d-his at 1 µg/mL, anti-human IgG Fc-HRP [B]
# T9 construct: Bought protein; also called human CD3E&D heterodimer protein; not shown: His Tag fused to C-terminus of CD3 epsilon chain
# Protocol: as §1
# [11] = target: T4, Biotinylated cynomolgus CD3e&d protein …; experiment: BLI (Octet RED96e), biotinylated antigen on SA biosensors
# Protocol: as §2, §3
# [12] = target: T10, CD3 on T cells in cynomolgus monkey PBMCs (cynomolgus monkey, UniProt Q95LI5 22-198; Q95LI8 22-171; Q95LI7 23-181); experiment: FACS on cynomolgus monkey PBMCs, 2-fold serial dilution from 200 nM [A]
# T10 construct: whole, on cells
# Protocol: (§4) The cross reactivity to cynomolgus monkey for 3G11-HCAb (PR010991) and derived B7H4xCD3 PR008551 was evaluated by assays of binding activity to cynomolgus monkey PBMCs by FACS method and T cell mediated cytotoxicity with cynomolgus monkey PBMCs by RTCA method. In this example, Anti-CD3/TCR HCAb PR006361 derived from patent WO2016180982A1 and its derived B7H4xCD3 PR006001 were used as control antibodies. These antibodies are generated as described in Example 8.
# (§5) Cynomolgus monkey PBMCs were isolated from 10 mL fresh cynomolgus monkey blood using Ficoll Paque Plus (Cytiva 17-1440-02) following the vendor's instructions. The recombinant antibodies were diluted from 200 nM to 11 different concentrations by 2-fold serial dilution. The diluted samples were incubated with cynomolgus monkey PBMCs for 1 hour, and then the secondary antibody (Alexa Fluor®488 AffinityPure Goat Anti-Human IgG (Fcγ Fragment Specific), Jackson ImmunoResearch, 109-545-098) was added and incubated for 1 hour. The cells were washed twice with staining buffer and subjected to flow cytometry. The data were processed by FlowJo v10 (FlowJo, LLC) and non-linear curve fitting analyzed by GraphPad Prism 8.
# [13] = target: T10, CD3 on T cells in cynomolgus monkey …; experiment: FACS on cynomolgus monkey PBMCs, 2-fold serial dilution from 200 nM [B]
# Protocol: as §4, §5
# T4 sequence (Q95LI5 22-117, chain 1 of 2): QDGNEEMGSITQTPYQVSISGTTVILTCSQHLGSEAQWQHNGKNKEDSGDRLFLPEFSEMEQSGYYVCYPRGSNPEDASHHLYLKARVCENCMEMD
# T4 sequence (Q95LI8 22-105, chain 2 of 2): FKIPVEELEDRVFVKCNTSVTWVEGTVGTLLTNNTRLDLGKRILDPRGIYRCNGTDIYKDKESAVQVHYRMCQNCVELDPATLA
# T3 sequence (P09693 23-182, chain 3 of 2): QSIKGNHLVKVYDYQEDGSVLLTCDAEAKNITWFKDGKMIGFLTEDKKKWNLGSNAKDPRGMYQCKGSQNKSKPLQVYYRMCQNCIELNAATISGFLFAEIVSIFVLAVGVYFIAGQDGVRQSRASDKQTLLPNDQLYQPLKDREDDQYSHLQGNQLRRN
# T3 sequence (P20963 22-164, chain 4 of 2): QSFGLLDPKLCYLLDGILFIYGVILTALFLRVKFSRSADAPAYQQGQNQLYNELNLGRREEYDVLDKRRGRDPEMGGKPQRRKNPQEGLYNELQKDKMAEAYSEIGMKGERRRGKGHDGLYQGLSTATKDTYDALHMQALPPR
# T10 sequence (Q95LI5 22-198, chain 1 of 3): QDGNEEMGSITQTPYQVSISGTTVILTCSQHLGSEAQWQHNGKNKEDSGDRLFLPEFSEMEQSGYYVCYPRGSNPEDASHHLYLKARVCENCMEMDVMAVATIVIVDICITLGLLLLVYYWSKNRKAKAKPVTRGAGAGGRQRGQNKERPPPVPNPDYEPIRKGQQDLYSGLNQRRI
# T10 sequence (Q95LI8 22-171, chain 2 of 3): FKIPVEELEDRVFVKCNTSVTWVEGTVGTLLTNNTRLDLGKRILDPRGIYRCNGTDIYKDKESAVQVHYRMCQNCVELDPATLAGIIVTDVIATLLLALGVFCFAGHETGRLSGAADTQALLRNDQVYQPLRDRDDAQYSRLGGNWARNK
# T10 sequence (Q95LI7 23-181, chain 3 of 3): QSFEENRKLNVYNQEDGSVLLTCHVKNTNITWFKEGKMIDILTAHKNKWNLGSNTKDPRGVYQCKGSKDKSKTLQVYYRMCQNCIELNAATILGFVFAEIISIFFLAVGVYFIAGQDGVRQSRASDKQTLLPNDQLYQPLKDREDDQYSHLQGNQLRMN
# T5 sequence (Q95LI5 22-117, stated change not applied, chain 1 of 2): as the sequence (Q95LI5 22-117, chain 1 of 2) above
# T5 sequence (Q95LI8 22-105, stated change not applied, chain 2 of 2): as the sequence (Q95LI8 22-105, chain 2 of 2) above
# T6 sequence (P09693 23-116, one chain of several): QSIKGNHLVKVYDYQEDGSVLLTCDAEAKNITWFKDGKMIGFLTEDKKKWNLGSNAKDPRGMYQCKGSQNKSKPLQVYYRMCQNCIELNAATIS
binder,measurement,setting,value
B1,EC50 (read off the curve),human CD3e&d-llamaFc,~0.03 µg/mL
same,Kd,[1],0.0342 nM
same,koff,[1],2.49e-05 s⁻¹
same,kon,[1],727000 M⁻¹ s⁻¹
same,EC50 (read off the curve),[2],~0.7 nM
same,EC50 (read off the curve),[3],~2 nM
B2,Kd,[4],< 0.001 nM
same,koff,[4],< 1e-07 s⁻¹
same,kon,[4],906000 M⁻¹ s⁻¹
same,Kd,[5],< 0.001 nM
same,koff,[5],< 1e-07 s⁻¹
same,kon,[5],708000 M⁻¹ s⁻¹
same,EC50 (read off the curve),[6],~2 nM
same,binding result,[7],no binding (tested: 100 nM)
same,binding result,[8],no binding (tested: 100 nM)
same,binding result,[9],no binding (tested: 100 nM)
same,EC50 (read off the curve),[10],~0.9 nM
B3,EC50 (read off the curve),[3],~9 nM
B4,binding result,[11],no binding (tested: 12.5-200 nM)
same,binding result,[12],no binding (tested: 200 nM)
B5,binding result,[13],no binding (tested: 200 nM)
